Source: patent US20250361274A1, “PEPTIDE AND PEPTIDE-CONTAINING AGENT” (PEPTIDREAM INC., priority 2022, published 2025)
Numbered stars: 1 amine (or outer) side, 2 acyl side, 3 side chain; on linkers, the order of the positions; unused ones are H or OH. Bridge positions count the residues as written; N and C are the ends. Square brackets hold non-standard residues; d marks the D form. Ends that are not written are not given here. F44thp = (S)-2-amino-3-[4-(tetrahydro-2H-pyran-4-yl)phenyl]propanoic acid, O=C([C@H](Cc1ccc(C2CCOCC2)cc1)N[*:1])[*:2]; F42Py = (S)-2-amino-3-[4-(pyridin-2-yl)phenyl]propanoic acid, O=C([C@H](Cc1ccc(-c2ccccn2)cc1)N[*:1])[*:2]; Hgn = (S)-2,6-diamino-6-oxohexanoic acid, NC(=O)CCC[C@H](N[*:1])C(=O)[*:2]; 3Pal(6-Ph) = N[C@@H](Cc1ccc(-c2ccccc2)nc1)C(=O)O; Bip = N[C@@H](Cc1ccc(-c2ccccc2)cc1)C(=O)O; Ala(cPent) = N[C@@H](CC1CCCC1)C(=O)O; NMeF = CN[C@@H](Cc1ccccc1)C(=O)O; Aad = N[C@@H](CCCC(=O)O)C(=O)O; Cha = N[C@@H](CC1CCCCC1)C(=O)O; Ahp(2) = CCCCC[C@H](N)C(=O)O; Abu = CC[C@H](N)C(=O)O

How the values were obtained:
BMP4 = target: T1, BMP4 (Homo sapiens, UniProt P12644); experiment: BMP4 signal transduction inhibitory activity: SMAD1 phosphorylation by BMP4 stimulus, AlphaLISA SureFire, A549 cells; type: cell-based; conditions: SMAD1 phosphorylation, BMP4 0.2 nM; peptide conc. in assay 0.2, 2, 20 nM
T1 sequence (P12644 293-408): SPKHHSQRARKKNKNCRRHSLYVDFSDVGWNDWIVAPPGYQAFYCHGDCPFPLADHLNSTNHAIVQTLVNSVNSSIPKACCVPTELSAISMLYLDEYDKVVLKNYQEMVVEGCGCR

BMP7 = target: T2, BMP7 (Homo sapiens, UniProt P18075); experiment: BMP7 signal transduction inhibitory activity: SMAD1 phosphorylation by BMP7 stimulus, A549 cells; type: cell-based; conditions: SMAD1 phosphorylation, BMP7 10 nM; peptide conc. in assay 1, 10, 100 nM
T2 sequence (P18075 293-431): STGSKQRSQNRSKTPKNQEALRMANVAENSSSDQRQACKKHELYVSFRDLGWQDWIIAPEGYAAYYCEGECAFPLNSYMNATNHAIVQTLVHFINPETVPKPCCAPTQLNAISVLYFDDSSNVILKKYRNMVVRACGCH
Procedure, shortened: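 A549 cells were stimulated with 10 nM BMP7, and peptide inhibition of signalling was measured as SMAD1 phosphorylation. Peptides were tested at three concentrations, in sets ranging from 1–100 nM to 100–1,000 nM, or as eight-point 1/3 dilution series starting at 100 nM or 1,000 nM.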

Substance	aLISA BMP4 (0.2 nM) % inh (BMP4)	aLISA BMP7 (10 nM) % inh (BMP7)
327 (FG[NMeF]G[F42Py]GDD[Cha]A[NMeF]LHCG-NH2; not fully specified) [compound 327]	A (showed less than 30% of inhibitory activity in 2 nM-peptide-addition zone and showed 30% or more of inhibitory activity in 20 nM-addition zone)	D (showed less than 30% of inhibitory activity in 10 nM-addition zone and showed 30% or more of inhibitory activity in 100 nM-addition zone)
328 (FG[NMeF]G[3Pal(6-Ph)]GDD[Cha]A[NMeF]LHCG-NH2; not fully specified (N-terminus, bridges)) [compound 328]	ND (the inhibitory activity was less than 30% at the maximum concentration evaluated)	D (showed less than 30% of inhibitory activity in 10 nM-addition zone and showed 30% or more of inhibitory activity in 100 nM-addition zone)
329 (FG[NMeF]G[F44thp]GDD[Cha]A[NMeF]LHCG-NH2; not fully specified (N-terminus, bridges)) [compound 329]	ND (the inhibitory activity was less than 30% at the maximum concentration evaluated)	D (showed less than 30% of inhibitory activity in 10 nM-addition zone and showed 30% or more of inhibitory activity in 100 nM-addition zone)
330 (FG[NMeF][dA][Bip]GDD[Cha]A[NMeF]LHCG-NH2; not fully specified (N-terminus, bridges)) [compound 330]	ND (the inhibitory activity was less than 30% at the maximum concentration evaluated)	D (showed less than 30% of inhibitory activity in 10 nM-addition zone and showed 30% or more of inhibitory activity in 100 nM-addition zone)
331 (FG[NMeF][dS][Bip]GDD[Cha]A[NMeF]LHCG-NH2; not fully specified (N-terminus, bridges)) [compound 331]	ND (the inhibitory activity was less than 30% at the maximum concentration evaluated)	D (showed less than 30% of inhibitory activity in 10 nM-addition zone and showed 30% or more of inhibitory activity in 100 nM-addition zone)
332 (FG[NMeF]G[Bip]ADD[Cha]A[NMeF]LHCG-NH2; not fully specified (N-terminus, bridges)) [compound 332]	ND (the inhibitory activity was less than 30% at the maximum concentration evaluated)	D (showed less than 30% of inhibitory activity in 10 nM-addition zone and showed 30% or more of inhibitory activity in 100 nM-addition zone)
333 (FG[NMeF]G[Bip][dA]DD[Cha]A[NMeF]LHCG-NH2; not fully specified (N-terminus, bridges)) [compound 333]	ND (the inhibitory activity was less than 30% at the maximum concentration evaluated)	D (showed less than 30% of inhibitory activity in 10 nM-addition zone and showed 30% or more of inhibitory activity in 100 nM-addition zone)
334 (FG[NMeF]G[Bip]GND[Cha]A[NMeF]LHCG-NH2; not fully specified (N-terminus, bridges)) [compound 334]	ND (the inhibitory activity was less than 30% at the maximum concentration evaluated)	D (showed less than 30% of inhibitory activity in 10 nM-addition zone and showed 30% or more of inhibitory activity in 100 nM-addition zone)
335 (FG[NMeF]G[Bip]GDD[Ala(cPent)]A[NMeF]LHCG-NH2; not fully specified (N-terminus, bridges)) [compound 335]	ND (the inhibitory activity was less than 30% at the maximum concentration evaluated)	D (showed less than 30% of inhibitory activity in 10 nM-addition zone and showed 30% or more of inhibitory activity in 100 nM-addition zone)
336 (FG[NMeF]G[Bip]GDD[Cha]E[NMeF]LHCG-NH2; not fully specified (N-terminus, bridges)) [compound 336]	ND (the inhibitory activity was less than 30% at the maximum concentration evaluated)	D (showed less than 30% of inhibitory activity in 10 nM-addition zone and showed 30% or more of inhibitory activity in 100 nM-addition zone)
337 (FG[NMeF]G[Bip]GDD[Cha][Aad][NMeF]LHCG-NH2; not fully specified (N-terminus, bridges)) [compound 337]	ND (the inhibitory activity was less than 30% at the maximum concentration evaluated)	D (showed less than 30% of inhibitory activity in 10 nM-addition zone and showed 30% or more of inhibitory activity in 100 nM-addition zone)
338 ({CH2CO}-FG[NMeF]G[Bip]GDD[Cha][Ahp(2)][NMeF]LHCG-NH2; thioether N-14) [compound 338]	ND (the inhibitory activity was less than 30% at the maximum concentration evaluated)	D (showed less than 30% of inhibitory activity in 10 nM-addition zone and showed 30% or more of inhibitory activity in 100 nM-addition zone)
339 (FG[NMeF]G[Bip]GDD[Cha][Abu][NMeF]LHCG-NH2; not fully specified (N-terminus, bridges)) [compound 339]	ND (the inhibitory activity was less than 30% at the maximum concentration evaluated)	D (showed less than 30% of inhibitory activity in 10 nM-addition zone and showed 30% or more of inhibitory activity in 100 nM-addition zone)
340 (FG[NMeF]G[Bip]GDD[Cha]Q[NMeF]LHCG-NH2; not fully specified (N-terminus, bridges)) [compound 340]	ND (the inhibitory activity was less than 30% at the maximum concentration evaluated)	D (showed less than 30% of inhibitory activity in 10 nM-addition zone and showed 30% or more of inhibitory activity in 100 nM-addition zone)
341 (FG[NMeF]G[Bip]GDD[Cha]S[NMeF]LHCG-NH2; not fully specified (N-terminus, bridges)) [compound 341]	ND (the inhibitory activity was less than 30% at the maximum concentration evaluated)	D (showed less than 30% of inhibitory activity in 10 nM-addition zone and showed 30% or more of inhibitory activity in 100 nM-addition zone)
342 (FG[NMeF]G[Bip]GDD[Cha]T[NMeF]LHCG-NH2; not fully specified (N-terminus, bridges)) [compound 342]	ND (the inhibitory activity was less than 30% at the maximum concentration evaluated)	D (showed less than 30% of inhibitory activity in 10 nM-addition zone and showed 30% or more of inhibitory activity in 100 nM-addition zone)
343 (FG[NMeF]G[Bip]GDD[Cha][Hgn][NMeF]LHCG-NH2; not fully specified (N-terminus, bridges)) [compound 343]	ND (the inhibitory activity was less than 30% at the maximum concentration evaluated)	D (showed less than 30% of inhibitory activity in 10 nM-addition zone and showed 30% or more of inhibitory activity in 100 nM-addition zone)
344 (FG[NMeF]G[Bip]GDD[Cha]A[NMeF][Cha]HCG-NH2; not fully specified (N-terminus, bridges)) [compound 344]	A (showed less than 30% of inhibitory activity in 2 nM-peptide-addition zone and showed 30% or more of inhibitory activity in 20 nM-addition zone)	D (showed less than 30% of inhibitory activity in 10 nM-addition zone and showed 30% or more of inhibitory activity in 100 nM-addition zone)
